Measurements reported in patent publication US6492139 (Genentech, dated 2002).

What was measured:
[1] = target: T1, Flag tagged rSmo (rat Smoothened with C-terminal Flag epitope tag) (rat, UniProt P97698 33-793); assay: staining of transfected cells exposed to tagged ligand
T1 construct: Expressed transiently in COS-7 or 293 cells from pRK5

[2] = target: T2, dSmo (Drosophila Smoothened, epitope tagged) (Drosophila, UniProt P91682 32-1036); assay: as above
T2 construct: also called dro.smo
T2 sequence: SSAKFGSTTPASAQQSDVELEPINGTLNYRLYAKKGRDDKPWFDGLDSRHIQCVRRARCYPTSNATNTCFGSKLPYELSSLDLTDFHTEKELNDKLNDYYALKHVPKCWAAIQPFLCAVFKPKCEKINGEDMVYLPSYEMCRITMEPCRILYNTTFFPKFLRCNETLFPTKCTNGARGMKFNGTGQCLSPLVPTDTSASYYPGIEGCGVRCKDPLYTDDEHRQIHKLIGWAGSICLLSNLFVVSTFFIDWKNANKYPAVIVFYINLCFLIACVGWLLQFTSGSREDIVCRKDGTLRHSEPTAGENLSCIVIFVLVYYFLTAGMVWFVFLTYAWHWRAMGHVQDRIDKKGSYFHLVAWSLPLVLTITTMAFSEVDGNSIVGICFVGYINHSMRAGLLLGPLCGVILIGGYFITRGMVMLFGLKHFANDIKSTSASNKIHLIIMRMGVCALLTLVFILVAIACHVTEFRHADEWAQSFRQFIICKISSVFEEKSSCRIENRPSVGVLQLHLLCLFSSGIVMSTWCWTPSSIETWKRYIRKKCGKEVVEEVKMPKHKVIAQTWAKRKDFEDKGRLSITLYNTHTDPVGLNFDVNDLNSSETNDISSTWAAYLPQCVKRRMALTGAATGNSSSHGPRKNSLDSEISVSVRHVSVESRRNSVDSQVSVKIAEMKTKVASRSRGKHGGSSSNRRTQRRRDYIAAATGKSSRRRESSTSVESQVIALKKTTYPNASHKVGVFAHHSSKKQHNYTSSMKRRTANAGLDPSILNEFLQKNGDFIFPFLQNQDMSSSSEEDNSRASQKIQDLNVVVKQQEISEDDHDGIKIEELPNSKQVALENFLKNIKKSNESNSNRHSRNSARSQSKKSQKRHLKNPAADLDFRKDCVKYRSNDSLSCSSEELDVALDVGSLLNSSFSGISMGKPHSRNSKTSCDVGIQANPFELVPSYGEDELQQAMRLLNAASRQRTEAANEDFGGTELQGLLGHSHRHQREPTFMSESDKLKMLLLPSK

T1 sequence (P97698 33-793): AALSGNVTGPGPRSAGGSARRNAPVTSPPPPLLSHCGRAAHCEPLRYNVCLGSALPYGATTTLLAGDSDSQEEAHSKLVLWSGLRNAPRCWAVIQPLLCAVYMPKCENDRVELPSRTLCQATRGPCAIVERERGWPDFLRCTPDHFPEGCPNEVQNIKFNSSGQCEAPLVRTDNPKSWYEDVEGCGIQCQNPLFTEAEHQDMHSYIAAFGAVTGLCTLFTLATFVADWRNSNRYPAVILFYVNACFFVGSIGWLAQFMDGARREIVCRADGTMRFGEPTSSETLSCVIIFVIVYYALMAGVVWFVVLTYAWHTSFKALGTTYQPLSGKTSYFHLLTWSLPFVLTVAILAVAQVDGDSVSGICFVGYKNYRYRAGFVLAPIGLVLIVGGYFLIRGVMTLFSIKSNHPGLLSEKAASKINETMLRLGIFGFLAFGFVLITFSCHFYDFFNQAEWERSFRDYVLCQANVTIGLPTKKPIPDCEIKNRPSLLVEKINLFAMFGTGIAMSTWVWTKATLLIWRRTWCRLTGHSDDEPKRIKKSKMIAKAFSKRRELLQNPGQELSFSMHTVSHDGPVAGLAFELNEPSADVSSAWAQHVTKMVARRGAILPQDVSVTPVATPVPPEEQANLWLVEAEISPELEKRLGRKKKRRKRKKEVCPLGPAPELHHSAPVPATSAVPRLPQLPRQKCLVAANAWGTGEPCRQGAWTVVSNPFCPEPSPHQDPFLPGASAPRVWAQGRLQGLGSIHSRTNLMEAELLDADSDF

- binding result [1]: no binding
- binding result [2]: no binding
B1: epitope tagged Desert HH (ligand, not shown: small tags and cut ends)
chain: not shown
